In US20180215801A1 (BOARD OF TRUSTEES OF MICHIGAN STATE UNIVERSITY, published 2018):
One block for each binder: values may come before it.

Assays:
[1] = target: T1, Fc-free Cryptic (human Cryptic extracellular domain after removal of the Fc with TEV protease) (human, UniProt P0CG37 26-155); test: SPR competition: 10 nM Activin B preincubated with Fc-free Cryptic, binding to captured ACTRIIA-Fc is blocked
T1 construct: Same conflict about the C-terminal limit as for Cryptic-Fc (155 vs 167)
Experimental: (§1) Receptor-ligand binding affinities were determined by SPR using the Biacore 2000. Anti-human IgG (Fc) antibody was immobilized onto four channels of a CM5 chip using amine coupling chemistry. […] A reference channel was monitored to account for nonspecific binding, drift, and bulk shifts.

[2] = target: T2, ALK4-Fc (human ALK4 extracellular domain fused to human IgG1 Fc) (human, UniProt P36896 24-110); test: SPR (Biacore 2000), Fc fusion captured on anti-human Fc chip, ligand injected, 1:1 Langmuir fit
T2 construct: range 1-110; Captured on an anti-human Fc chip in SPR; also called ALK4-hIgg-Fc; human ALK4-Fc
Experimental: (§2) Receptor-ligand binding affinities were determined by SPR using the Biacore 2000. Anti-human IgG (Fc) antibody was immobilized onto four channels of a CM5 chip using amine coupling chemistry. […] A reference channel was monitored to account for nonspecific binding, drift, and bulk shifts. […] After each binding cycle, the antibody surface was regenerated to base line. All experiments were carried out at 25° C. HBS-EPS buffer (0.01 M HEPES, […], 3 mM EDTA, 0.005% (v/v) Tween 20, pH 7.4) containing 0.1% BSA was used as running buffer. […] Sensograms were analyzed by double referencing. To obtain kinetic rate constants, the processed data was fitted to 1:1 Langmuir interaction model with mass transport limitation using Scrubber, Clamp or BiaEvaluation software. The equilibrium binding constant Kd was determined by calculating the ratio of binding rate constants kd/kₐ.

[3] = target: T1, Fc-free Cryptic (human Cryptic …); test: SPR competition: 1 nM Activin A preincubated with Fc-free Cryptic, binding to captured ACTRIIA-Fc is blocked
Experimental: as §1

[4] = target: T2, ALK4-Fc (human ALK4 extracellular …); test: SPR, ALK4-Fc captured, Activin A series preincubated with excess Fc-free Cryptic injected
Experimental: as §2

T2 sequence (P36896 other isoform, or with tags, fused parts or gaps limits assumed, form in doubt): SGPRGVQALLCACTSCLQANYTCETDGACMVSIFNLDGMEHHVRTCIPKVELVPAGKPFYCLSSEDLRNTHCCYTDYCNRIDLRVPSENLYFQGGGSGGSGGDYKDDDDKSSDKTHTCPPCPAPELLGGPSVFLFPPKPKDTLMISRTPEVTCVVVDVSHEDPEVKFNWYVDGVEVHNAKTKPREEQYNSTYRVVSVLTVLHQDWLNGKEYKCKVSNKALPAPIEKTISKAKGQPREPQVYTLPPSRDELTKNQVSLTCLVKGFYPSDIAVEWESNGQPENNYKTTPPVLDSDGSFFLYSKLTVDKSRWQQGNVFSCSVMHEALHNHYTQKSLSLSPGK

binding result [1]: binds
B1: Activin B (ligand, UniProt P09529 293-407, looked up)
chain: GLECDGRTNLCCRQQFFIDFRLIGWNDWIIAPTGYYGNYCEGSCPAYLAGVPGSASSFHTAVVNQYRMRGLNPGTVNSCCIPTKLSTMSMLYFDDEYNIVKRDVPNMIVEECGCA
notes: also called recombinant Activin B

Kd [2]: 4 nM | koff [2]: 0.0018 s⁻¹ | kon [2]: 450000 M⁻¹ s⁻¹ | binding result [3]: binds
B2: Activin A (ligand)
chain: GLECDGKVNICCKKQFFVSFKDIGWNDWIIAPSGYHANYCEGECPSHIAGTSGSSLSFHSTVINHYRMRGHSPFANLKSCCVPTKLRPMSMLYYDDGQNIIKKDIQNMIVEECGCS
notes: also called homodimer of inhibin beta A subunits

Kd [4]: 2.6 nM | koff [4]: 0.0016 s⁻¹ | kon [4]: 620000 M⁻¹ s⁻¹
B3: Activin A/Cryptic complex (Activin A preincubated with excess Fc-free Cryptic) (other)
chain 1: GLECDGKVNICCKKQFFVSFKDIGWNDWIIAPSGYHANYCEGECPSHIAGTSGSSLSFHSTVINHYRMRGHSPFANLKSCCVPTKLRPMSMLYYDDGQNIIKKDIQNMIVEECGCS
chain 2: not shown
